Reference: the nanobody polyreactivity screen of Harvey et al. (2022)

Assay: yeast display, Sf9 membrane polyspecificity reagent, FACS + sequencing; frameworks hold sequencing errors
Summary of the method: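 A nanobody's polyreactivity label depends on the gate it was sorted from. Yeast display cells were stained with 10% biotinylated, detergent-solubilized Sf9 membrane reagent for 1 hour at 4 °C, enriched on streptavidin microbeads and sorted by FACS. The low and high (top ~1%) gates were set on anti-HA fluorescence for expression and streptavidin fluorescence for reagent binding.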

Row | Sequence | polyreactivity (PSR sort gate)
1 | QVQLVESGGGLVQAGGSLRLSCAASGRIFYIYAMGWYRQAPGKERELVASITSSGTSTYADSVKGRFTISRDNAKNTVYLQMNSLKPEDTAVYYCNARGYPKSWRYSRGYEYWGQGTQVTVSS | low polyreactivity
2 | QVQLVESGGGLVQAGGSLRLSCAASGRIFGRYAMGWYRQAPGKERELVASISTGGGGTYYADSVKGRFTISRDNAKNTVYLQMNSLKPEDTAVYYCAKAWRGFWTKYDYWGQGTQVTVSS | low polyreactivity
3 | QVQLVESGGGLVQAGGSLRLSCAASGSISPVYAMGWYRQAPGKERELVAAYADSVKGRFTISRDNAKNTVYLQMNSLIPEDTAVYYCNVVETSQELGWQAFDYWGQGTQVTVSS | low polyreactivity
4 | QVQLVESGGGLVQAGGSLRLSSAASGRIFFGNTMGWYRQAPGKERELVATIRKIGGRTYYADSVKGRFTISRDNAKNTVYLQMNSLKPEDTAVYYCATDFAPSYYPDRFDYWGQGTQVTVSS | low polyreactivity
5 | QVQLVESAGGLVQAGGSLRLSCAASGSSLGYYAMGWYRQAPGKERELVADIDNGTSTYYADSVKGRFTISRDNAKNTVYLQMNSLKQEDTAVYYCAADYYSRYLQSYYWGQGTQVTVSS | low polyreactivity
6 | QVQLVESGGGLVQAGGSLRLSCAASGRTFYPYVMGWYRQSPGKERELVASISWSGGSTYYADSVKGRFTFSRDNAKNSVYLQMNSLKPEDTAVYYCAALWPYGYWGQGTQVTVSS | low polyreactivity
7 | QVQRVETGGGLVQAGGSLRLSSAASGSTLPGNTMGWYRQAPGKERELVAAISKSGGTTYYADSVKGRFTISRDNAKNTVYLQMNCLKPEDTAVYYCAAKPWVWVYARYGKHPSYDYWGQGTQVTVSS | high polyreactivity
8 | QVQLVESGGGIVQAGGSLRLSCAASGSIFDVYAMGWYRQAPGKERELVAAITWRGGNTYYADSVKGRFTISRDNAKNTVYLQMNSLKPEDTAVYYCNALHRIRYTPSSRYDYWGQGTQVTVSS | low polyreactivity
9 | QVQLVESGGGLVQAGGSLRLSCAASGMTFTKNVMGWYRQAPGKEWELVAVISRSGGSTYYADSVKGRFTISRDNAKNTVYLQMNSLKPEDTAVYYCTVKGPGPSRGNYWGQVTQVTVSS | low polyreactivity
10 | QVQLVESGGGLVQAGGILRLSCAASGIIFQRNEMGWYRQTPGKERELVANIRDGGITYADSVKGRFTISRDNAKNTVYLEMNSLKPEDTAVYYCARDDTSPGYCDQSSNAAYYYWGQGTQVTVSS | low polyreactivity
11 | QVQLEESGGGLVQAGGSLRLSCAASGYTFRPYAIGWYRQAAGKERVLVAAISRSGGRTYYADSVKGRFTISRDNAKNTVYLQMNSLIPEDTAVYYCAADRFSLSGFDSWGQGTQGTVSS | low polyreactivity
12 | QVQLVESGGGLVQAGGSLRLSCAASGIGCYRQAPGKERELVAAINWSGGNTYYADSVKGRFTISRDNAKNTVYLQMNSLKPEDTAVYYCNAVVWVEVPGDYWGQGTQVTVSS | low polyreactivity
13 | QVHLVESGGGLVQAGGSLRLSCAASGSIFDYYAMGWYRQAPGKERELVAAITYDSGRTYYADSVKGRFTNSRDNAKNTVYLQMYSLKPEDTAVYYCNKYSYSWRYCPGTSGYDYWGQGTQVTVSS | low polyreactivity
14 | QVQLVESGGGIVQAGGSLRLSCAASGSIFPDNAMGWYRQAPGKERELVAAIDKGTGSTNYADSVKGRFTISRDNAKNTVYLQMNSLKPEDTAVYYDYWGQGTQVSVSS | low polyreactivity
15 | QVQLVESGGGLVQAGGSLRLSCAASGSTFYTYAMGWYRQAPGKERELVAAIRGRGGRTYYADSVKGRFTISRDNAKNTVYLQMNSLKPEDTSVYYCNADGYAYYRATTRFDYWGQGTQVTVSS | high polyreactivity
16 | QVQLVESGGGLVQEGGSLRLSCAASGFTFYWYAMGWYRQAPGKERELVAAITRSGSSTYYADSVKGRFTISRDNAKNTVYLQMNSLKPEDTEVYYCAALPYKPYYDAYDYWGQGTQVTVSS | high polyreactivity
17 | QVQLVESGGGLVQAGGSLRLSCAASGRTFTFNAMGWYRQAPGKETELVAAISTSGGSTYYADSVKGRFTISRDNAKNTVYLQMNSLKPEDTAVYYCNTYPYYRAGGSDYWGQGTQVTVSS | high polyreactivity
18 | QVQLVESGGGLVQAGGSLRLSCAASGSIFAFNVMGWYRQAPGKERELVAAITWGGRTYYADSVKGRFTISRDNAKNTVYLQMNSLKPEDTAVYYCAAYPLYRVSHGYEYNYWGQGTQVTVSS | high polyreactivity
19 | QVQLLESGGGLVQAGGSLRLSCAASGSTFDRNTMGWYRQAPGTVRELVAAITWSSGSTYYADSVKGRFTISRDNAKNTVYLQMNSLKPEDTAVYYCAADRIRYRSRHKYGYWVQGTQVTVSS | low polyreactivity
20 | QVQLVESGGGLVQAGGSLRLSCAASGSTFPQYAMGRYRQAPGKERELVAAISRSGGSTYYADSVKGRFTISRDNAKNTVYLQMNSLKPEDTAVYYCNVKSGFWFYPTMDYWGQGTQVTVSS | high polyreactivity
21 | QVQLVESGGGLVQAGGSLRLSCAASGSIFSSYAMGWYRQAPGKERELVAAISSSGDSTYADSVKGRFTISRDNAKNTVYLQMISLKPEDTAGYYCAVGGAGSDDYWGQGTQVTVSS | low polyreactivity
22 | QVQLVESGGGLVQAGGSLRLSCAASGSIFVNYAKGWYRQAPGKERELVAAITRSGGRTYYADSVKGRFTISRDNAKNTVYLQMNSLKPEDTAVYYCNKRRYPYGWGQGTQVNVSS | high polyreactivity

Row | Sequence | polyreactivity (PSR sort gate)
23 | QVQLVESGGGLVQAGGSLRLSCAASGITFYYNVMGWYRQAPGKERELVASITSGGSTYYADSVKGRFTISRDNAKNTVYLQMNSLKPEDTAVSYCNKDHALYVDFSYDYWGQGTQVTVSS | low polyreactivity
24 | QVQLVESGGGLVQAGGSLLLSCAASGRIFAYYAMGWYRQAPGKERELVAGISQRGSRTYYADSVKGRFTISRDNAKNTVYLQMNSLKPEDTAVYYCAARDRRSVTMDYWGQGTQVTVSS | high polyreactivity
25 | QVQLVESGGGLVQAGGSLRLSCAASGSIFTKYAMGWYRQAPGKERELVAAISWSGVSTYYADSVKGRFTISRDNAKHTVYLQMNSLKPEDTAVYYCNTRRYRSYGTTRYGYWGQGTQLTVSS | high polyreactivity
26 | QVQLVESGGGLVQAGGSLRLSCAASGFIFRVNAMGWYRQAPGKERELVAAISRRGGSTYYADSVKGRFTISRDNAKNTVYLQMNSLKPEDTAVYYCAVKGASYPAYRGYDYWGQGTQVTVSS | high polyreactivity
27 | KVQLVESGGGLVQAGGSLRLSCAASGSIFTFNAMGWYRQAPGKERELVAAIRWSSGRTYYADSVKGRFTISRDNAKNTVYLQMNSLKPEDTAVYFCAAKDFGSFYESGYDYWGQGTQVTVSS | high polyreactivity
28 | QVQLVEAGGGLVQAGGSLRLTCAASGSIISRYAMGWYRQAPGKEREFVAAISSSGGSTYYADSVKGRFTISRDNAKNTVDVQMNSLKPEDTAVYYCARYAYKVPIMGYWGQGTQVTVSS | high polyreactivity
29 | QVQLVESGGGLFQAGGILRLTCAASGLTIYDYAMRWSRQAPAKERELVAANTRSAGSTYYADSVKGRFTISRDYAKYTVYLLMNSLKPEDTAVYYCAARGKIRYQGYYGSDQYYYWGQGTQVSVSS | high polyreactivity
30 | QVQLVESGGGLVQPGGSLRLSSAASGITFPDYAMGWYRKAPGKERELVATITSSGGRTYYAHSVKGRFTISRDNAKNTVYLQMKSLKTEDTAVYYCAARRAYIRTLYYWGQGTQVTVSS | high polyreactivity
31 | QVQLVESGGGLVQAGGSLRLSSAASGLNFYWYAMGWSRQAPGKERELVAAISTAGSTNYADSVKGRFTISRDNAKNTVYLQMISLKPEDTAVYYCNARIAYRYSNYGYWGQGTQVTVSS | low polyreactivity
32 | QVQLVESGGGLVQARGSLRLSCAASGSTLTRNALGWYRQAPGKERELVAAITQRGGSTYYADSVKGRFTISRDNGKNTVYFQMNSLKPEDTAVYYCAKVPSVKYRSIWVLPEYGWGQGTQVTVSS | high polyreactivity
33 | QVQLVESGGGLVQAGGSLRLSCAASGRIFDAYAMGWYRQAPGKERELLAAITQSGGSTFYADSVKGRFTISRDNAKNTVYLQMNSLKPEDTAVYYCAKDKFWFRVDGHYRMDYWGQGTQVTVSS | low polyreactivity
34 | QVQLVESGGGLVQAGGSLRLSCAASGSIFSRYAMGWYRQAPGKERELVAGISQRGGSTNYADSVKGRFTISRDNAKNTVYLQMNSLKPEDTAVYYCAARRITVWGYNPAYGYRFDYWGQGTQVTVSS | high polyreactivity
35 | QVQRVESGGGLVQAGGSLRLSCAASGRTFDGYAMGWYRQAPGKDRELVAAISKRGGSTYYADSVKGRFTISRDNAKNTVYLQMHSLKPEDTAVYYCNTRYFGDQTWVGGDSWGQGTQVTVSS | high polyreactivity
36 | QVQLVESGGGLVQAGGSLRLSCAASGLTFASYAMGWYRQSPGKERELVARISRSGGSTYYADSVKGRFTISRDNAKNTVYLQMNSLKPEDTAVYYCAARNSYGNWRYYYWGQGTQVTVSS | high polyreactivity
37 | QAQLQESGGGLVQAGGSLPRSCAPSGSIFRFSGMGWYRRAPGKERELVASIGFGSITYYEDRVKGRFTISRDNANNTVYLQMNSLKPEDTAVYYCAVQVQDDSWLDYWGQGTQVTVSC | low polyreactivity
38 | QVQLVESGGGLVQAGGSLRLSCAASGLTFYKNVMGWYRQAPGKERELVAAISSSGGSTYYADSVKGRFTISRDNAKNTVYLQMNSLKPDDTAVYYGAADDPLYTPYEFDYWGQGTQVTVSS | low polyreactivity
39 | QVQLVESGGGLVQAGGSLRLSCAASGFTFHGYAMGWYRQAPGKERELVAAIRSGDRTYYADSVKGRFTISRDNAKNTVYLQMNSLKPEDTAVYYCAVVYGYLYRYSAKYDYWGQGTQVTVSS | low polyreactivity
40 | QVQLVESGGGLFQAGGSLRLSCAASGLIFSSNAMGWYRQAPGKERELVATISWSGGSTYYADSVKGRFTISRDKAKNNVYLQMNSQKPEDTAVYYCAAAQRWSFLHYYYYWGQGTQVTVSS | high polyreactivity
41 | QVQLVESGGGLVQSGGSLRLSCAASGRIFRAYAMGWYIQAPGQERELVADITSGSGSTYYADSVKGRFTISRDYANNTVYLHMNSLKTEDTAVYYCAAYVLIRVWEYYYWGQGTQVNVSS | low polyreactivity
42 | QVQLVESVGGLVQAGGILRLSCAASGSIFRSYAMGWYRQAPGKERELVAAIRSDGRTNYADSLKGRFTISRDNAKNTVYFPMNRLKPEDTAVYYCAAKAYYSYWRSMDYWGQGTQVTVSS | low polyreactivity
43 | QVQLVESGGGLVQAGGSLRLSCAASGRTFRSYDMGWYRQAPGKERELVAAISEDGGYTYYADSVKGRFTISRDNAKNSVYLQMNSVKPEDTAVYYCAKDRPGPLRWWFLYGYWGQGTQVTVSS | low polyreactivity
